Assay results published in US20230416410A1 (ZOETIS SERVICES, published 2023).

T1: CTLA4bG2b (canine; bovine, UniProt Q9XSI1 36-161, limits assumed)
T1 construct: No linker; also called bIgG2b wildtype (CTLA4 fusion); CTLA4 Fc bIgG2b wildtype
T1 sequence: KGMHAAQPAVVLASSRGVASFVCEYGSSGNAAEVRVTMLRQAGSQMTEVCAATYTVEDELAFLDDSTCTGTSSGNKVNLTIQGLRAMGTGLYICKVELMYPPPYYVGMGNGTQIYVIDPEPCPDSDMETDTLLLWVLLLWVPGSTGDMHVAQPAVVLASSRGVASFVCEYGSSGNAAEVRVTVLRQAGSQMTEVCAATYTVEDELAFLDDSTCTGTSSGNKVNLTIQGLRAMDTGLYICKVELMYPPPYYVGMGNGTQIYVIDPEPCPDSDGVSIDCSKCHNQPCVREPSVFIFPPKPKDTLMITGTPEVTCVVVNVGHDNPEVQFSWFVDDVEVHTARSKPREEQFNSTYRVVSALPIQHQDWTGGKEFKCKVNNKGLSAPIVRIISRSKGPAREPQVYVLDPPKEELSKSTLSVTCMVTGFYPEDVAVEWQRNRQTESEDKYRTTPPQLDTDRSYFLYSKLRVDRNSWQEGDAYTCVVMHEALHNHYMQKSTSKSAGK

T2: recombinant bovine FcgR3 (bovine, UniProt P79107 17-208, limits assumed, biotin on the BAP tag (BirA))
T2 construct: also called bFcgR3; bFcgRIII
T2 sequence: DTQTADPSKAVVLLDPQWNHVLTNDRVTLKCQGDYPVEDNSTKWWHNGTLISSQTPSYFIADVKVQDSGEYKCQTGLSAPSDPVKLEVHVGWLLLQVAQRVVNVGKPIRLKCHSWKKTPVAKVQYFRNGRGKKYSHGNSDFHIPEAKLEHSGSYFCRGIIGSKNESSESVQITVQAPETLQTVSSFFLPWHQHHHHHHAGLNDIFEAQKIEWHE

T3: recombinant bovine FcgR2 (bovine, UniProt Q28110 43-225, limits assumed, biotin on the BAP tag (BirA))
T3 construct: also called bFcgR2; bFcgRII
T3 sequence: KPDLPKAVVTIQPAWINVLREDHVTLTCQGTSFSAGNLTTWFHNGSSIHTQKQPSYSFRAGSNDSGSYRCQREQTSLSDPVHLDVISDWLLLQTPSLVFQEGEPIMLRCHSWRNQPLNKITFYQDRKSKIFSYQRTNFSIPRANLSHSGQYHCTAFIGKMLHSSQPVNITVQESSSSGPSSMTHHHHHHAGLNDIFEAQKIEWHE

B1: recombinant bovine Fcg2R (receptor)
chain: GTFPKPIIWAEPSSVVPLGSSVTILCQGPPNTKSFSLNKEGDSTPWNIHPSLEPWDKANFFISNVREQQAGRYHCSHFIGVNWSEPSEPLDLLVAGEEPAGRLRDRPSLSVRPSPSVAPGENVTLLCQSGNRTDTFLLSKEGAAHRPLRLRSQDQDGWYQAEFSLSPVTSAHGGTYRCYRSLSTNPYLLSQPSEPLALLVADYTMQNLIRMGLAASVLLLLGILLCQARHDHGGAREAARS
modifications: biotin on the BAP tag (BirA)
B2: CTLA4 Fc bIgG3b (Fc fusion)
chain: DMHVAQPAVVLASSRGVASFVCEYGSSGNAAEVRVTVLRQAGSQMTEVCAATYTVEDELAFLDDSTCTGTSSGNKVNLTIQGLRAMDTGLYICKVELMYPPPYYVGMGNGTQIYVIDPEPCPDSDTARRPVPTTPKTTIPPGKPTTQESEVEKTPCQCSKCPEPLGGLSVFIFPPKPKDTLTISGTPEVTCVVVDVGQDDPEVQFSWFVDDVEVHTARTKPREEQFNSTYRVVSALRIQHQDWLQGKEFKCKVNNKGLPAPIVRTISRTKGQAREPQVYVLAPPREELSKSTLSLTCLITGFYPEEIDVEWQRNGQPESEDKYHTTAPQLDADGSYFLYSRLRVNKSSWQEGDHYTCAVMHEALRNHYKEKSISRSPGK
notes: No linker; also called bIgG3b wildtype; CTLA4 Fc bIgG3b wildtype

Experiments:
[1] = biological target: T4, CTLA4bG2a (canine; bovine, UniProt Q9XSI1 36-161, limits assumed); experiment: SPR Biacore, bFcg2R amine-coupled on CM5, pH 7.4, 15 C
T4 construct: No linker; also called bIgG2a wildtype (CTLA4 fusion); CTLA4 Fc bIgG2a wildtype

[2] = biological target: T1, CTLA4bG2b; experiment: as above
[3] = biological target: T2, recombinant bovine FcgR3; experiment: SPR Biacore, biotinylated receptor on SA sensor, pH 7.4, 15 C
Experimental: (§1) A Biacore SPR binding assay was designed to test the affinity of bovine IgG subclasses to bFcgR1, bFcgR2 and bFcgR3. All reported KD's were measured by Biacore (Cytiva, Marlborough, MA, USA) using series S SA sensor. Biotinylated-bovine FcgR1, R2 and R3 were captured on the sensor surface using a modified SA capture method to reach the desired surface density. 10 mM HEPES, 150 mM NaCl, 3 mM EDTA, 0.05% v/v surfactant P20, pH7.4 buffer was used as the running and titration buffer. Various concentrations of bovine CTLA4-Fc fusions or mAbs were titrated and flowed over the receptor surface and affinities were determined using Biacore T200 Evaluation software (Cytiva, Marlborough, MA, USA) with 1:1 binding model. The method of double referencing has been applied where the reference flow cell was subtracted from the flow cell containing immobilized receptors and blank runs containing buffer only were subtracted out from all runs. Flow cells were regenerated using 10 mM Glycine pH1.5. Runs were performed at 15° C.
(§2) Biacore methods for bFcgR1, R2, and R3 were performed as described in Examples above. […] Although the two allotypes have different KDs for bFcgR2 and bFcgR3, both wildtype allotypes do bind. All of the mutations, bIgG3Win, bIgG3WinSAS, bIgG3SAS and bIgG3SAP for both the a and b allotypes knocked down binding to bFcgR1, bFcgR2 and bFcgR3 to negligible affinities. Thus, for knocking out receptor binding, the two allotypes compare similarly.

[4] = biological target: T3, recombinant bovine FcgR2; experiment: as above
Experimental: as §1, §2

[5] = biological target: T5, recombinant bovine FcgR1 (bovine, biotin on the BAP tag (BirA)); experiment: as above
T5 construct: also called bFcgR1; bFcgRI
Experimental: as §1, §2

[6] = biological target: complement component C1q (in bovine complement preserved serum) (bovine, UniProt Q5E9E3 23-244; Q2KIV9 23-247); experiment: cell-based or functional assay
complement component C1q (in bovine complement preserved serum), sequence (Q5E9E3 23-244, chain 1 of 2): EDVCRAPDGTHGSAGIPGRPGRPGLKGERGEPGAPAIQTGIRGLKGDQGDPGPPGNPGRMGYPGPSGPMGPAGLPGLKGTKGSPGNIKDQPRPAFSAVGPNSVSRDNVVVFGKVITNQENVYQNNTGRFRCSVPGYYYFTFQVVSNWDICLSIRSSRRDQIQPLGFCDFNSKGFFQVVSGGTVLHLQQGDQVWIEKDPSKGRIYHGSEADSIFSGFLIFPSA
complement component C1q (in bovine complement preserved serum), sequence (Q2KIV9 23-247, chain 2 of 2): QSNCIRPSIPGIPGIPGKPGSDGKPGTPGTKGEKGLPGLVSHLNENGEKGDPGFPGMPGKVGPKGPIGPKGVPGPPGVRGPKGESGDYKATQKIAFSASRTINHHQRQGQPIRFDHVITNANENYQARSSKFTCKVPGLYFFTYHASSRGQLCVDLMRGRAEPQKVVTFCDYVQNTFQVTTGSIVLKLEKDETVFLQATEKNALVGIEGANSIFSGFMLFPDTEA

Binder | Kd [1] [nM] | Kd [2] [nM] | Kd [3] [nM] | Kd [4] [nM] | Kd [5] [nM] | CDC EC50 Value [6] [µg/mL]
B1 | 41.7 | 31.4 | – | – | – | –
B2 | – | – | 49.6 | 706 | 12.5 | 0.028
